# According to patent US20210253718A1, “FRIZZLED5 PROTEIN-BINDING AGENTS” (Modmab Therapeutics Corporation, priority 2016, published 2021):
# Substitutions are numbered along the chain they refer to.
# B1: Fab-2933: anti-FZD5 Fab with antibody variable region Fv-2933; CDR SEQ ID NOs: 35, 36, 72, 109, 148, 177 (antibody, V domains shown)
# VH: EVQLVESGGGLVQPGGSLRLSCAASGFNLYSSYMHWVRQAPGKGLEWVASIYSSYGYTSYADSVKGRFTISADTSKNTAYLQMNSLRAEDTAVYYCARTVRGSKKPYFSGWAMDYWGQGTLVTVSS
# VL: DIQMTQSPSSLSASVGDRVTITCRASQSVSSAVAWYQQKPGKAPKLLIYSASSLYSGVPSRFSGSRSGTDFTLTISSLQPEDFATYYCQQFWWYASWLFTFGQGTKVEIK
# B2: Fab-2927: anti-FZD5 Fab with antibody variable region Fv-2927; CDR SEQ ID NOs: 35, 36, 66, 104, 142, 174 (antibody, V domains shown)
# VH: EVQLVESGGGLVQPGGSLRLSCAASGFNIYYSSMHWVRQAPGKGLEWVASIYPSYGYTSYADSVKGRFTISADTSKNTAYLQMNSLRAEDTAVYYCARYGYYGFDYWGQGTLVTVSS
# VL: DIQMTQSPSSLSASVGDRVTITCRASQSVSSAVAWYQQKPGKAPKLLIYSASSLYSGVPSRFSGSRSGTDFTLTISSLQPEDFATYYCQQWGSHGYLITFGQGTKVEIK
# B3: Fab-2935: anti-FZD5 Fab with antibody variable region Fv-2935; CDR SEQ ID NOs: 35, 36, 74, 111, 150, 178 (antibody, V domains shown)
# VH: EVQLVESGGGLVQPGGSLRLSCAASGFNIYYYYIHWVRQAPGKGLEWVASIYPSSGSTSYADSVKGRFTISADTSKNTAYLQMNSLRAEDTAVYYCARAAFDYWGQGTLVTVSS
# VL: B2 VL with G92Y, S93G, H94G, G95Y, Y96A
# B4: Fab-2932: anti-FZD5 Fab with antibody variable region Fv-2932; CDR SEQ ID NOs: 35, 36, 71, 108, 147, 153 (antibody, V domains shown)
# VH: B3 VH with Y30S, Y32S, I34M, P53S, S55Y, G56S, A99G, F101L
# VL: B2 VL with G92Y, S93G, H94S, G95F, Y96A
# B5: Fab-2930: anti-FZD5 Fab with antibody variable region Fv-2930; CDR SEQ ID NOs: 35, 36, 69, 107, 145, 153 (antibody, V domains shown)
# VH: B3 VH with I29L, Y30S, S54Y, A99G, F101L
# VL: DIQMTQSPSSLSASVGDRVTITCRASQSVSSAVAWYQQKPGKAPKLLIYSASSLYSGVPSRFSGSRSGTDFTLTISSLQPEDFATYYCQQWYGPYLITFGQGTKVEIK
# B6: Fab-2934: anti-FZD5 Fab with antibody variable region Fv-2934; CDR SEQ ID NOs: 35, 36, 73, 110, 149, 155 (antibody, V domains shown)
# VH: B3 VH with Y30S, Y32S, I34M, P53S, A99G, F101I
# VL: B5 VL with G93H, P94Y, Y95G
# Tests used:
# FZD1 CRD = target: T1, FZD1 CRD (Homo sapiens, UniProt Q9UP38); experiment: Immunofluorescence of anti-FZD5 Fab binding to CHO cells overexpressing Frizzled CRD; design: key: −: no binding; +: very weak binder; ++: weak binder; +++: good binder; ++++: very good binder
# T1 construct: D112-P238; GPI anchor signal (C); expressed in transfected cells; host or cells: CHO cells, lentiviral pLenti-puro
# Outline: (§1)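 Immunofluorescence readout of anti-FZD5 Fab staining on CHO cells ectopically overexpressing a single Frizzled cysteine-rich domain. Each CRD was fused to a myc tag and GPI anchor for plasma-membrane display; flow cytometry was run in parallel.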
# FZD2 CRD = target: T2, FZD2 CRD (Homo sapiens, UniProt Q14332); experiment: as above; design: key: −: no binding; +: very weak binder; ++: weak binder; +++: good binder; ++++: very good binder
# T2 construct: D35-P161; GPI anchor signal (C); expressed in transfected cells; host or cells: CHO cells, lentiviral pLenti-puro
# Outline: as §1
# FZD7 CRD = target: T3, FZD7 CRD (Homo sapiens, UniProt O75084); experiment: as above; design: key: −: no binding; +: very weak binder; ++: weak binder; +++: good binder; ++++: very good binder
# T3 construct: D45-S169; GPI anchor signal (C); expressed in transfected cells; host or cells: CHO cells, lentiviral pLenti-puro
# Outline: as §1
# FZD9 CRD = target: T4, FZD9 CRD (Homo sapiens, UniProt O00144); experiment: as above; design: key: −: no binding; +: very weak binder; ++: weak binder; +++: good binder; ++++: very good binder
# T4 construct: G35-A161; GPI anchor signal (C); expressed in transfected cells; host or cells: CHO cells, lentiviral pLenti-puro
# T4 sequence (O00144 35-161): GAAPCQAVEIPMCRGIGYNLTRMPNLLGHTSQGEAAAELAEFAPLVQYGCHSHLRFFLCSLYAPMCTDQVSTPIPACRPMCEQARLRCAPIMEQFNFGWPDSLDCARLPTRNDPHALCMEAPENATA
# Outline: as §1
# ASPC-1 cells = experiment: Effect of anti-FZD5 Fabs on proliferation of pancreatic cancer cell lines (percent growth inhibition); format: cell-based, human; details: Fab 10 μg/ml
# Protocol: (§2) The effect of presently disclosed anti-FZD5 Fabs on proliferation of RNF43 loss-of-function mutant pancreatic cancer cell lines HPAFII, PATU8988S and ASPC-1; and on pancreatic cancer cell line RWP1, was tested at […] and 10 μg/ml.
# HPAFII cells = experiment: as above; format: cell-based, human; details: for percent growth inhibition, HPAFII 2 μg/ml: Fab 2 μg/ml; for percent growth inhibition, HPAFII 10 μg/ml: Fab 10 μg/ml
# Protocol: as §2
# PATU8988S cells [1] = experiment: as above; format: cell-based, human; details: Fab 10 μg/ml
# Protocol: as §2
# RWP1 cells = experiment: as above; format: cell-based, human; details: Fab 10 μg/ml
# Protocol: as §2
# [2] = system: CHO cells not expressing Frizzled CRD; experiment: Flow cytometry of anti-FZD5 Fab binding to CHO cells not expressing Frizzled CRD (background)
# Source text: The binding of anti-FZD5 Fabs to cell surface-expressed Frizzled protein was further determined for each member of the Frizzled family via flow cytometry and immunofluorescence analysis of a panel of 10 CHO cell lines, each ectopically over-expressing the extracellular cysteine-rich domain (CRD) of a different Frizzled protein family member.
# PATU8988S cells [3] = experiment: Effect of anti-FZD5 Fabs on proliferation of pancreatic cancer cell lines (percent growth inhibition); format: cell-based, human; details: Fab 2 μg/ml
Molecule,"Immunofluorescence binding, Frizzled CRD overexpressed on CHO cells: FZD1 (FZD1 CRD)","Immunofluorescence binding, Frizzled CRD overexpressed on CHO cells: FZD2 (FZD2 CRD)","Immunofluorescence binding, Frizzled CRD overexpressed on CHO cells: FZD7 (FZD7 CRD)","Immunofluorescence binding, Frizzled CRD overexpressed on CHO cells: FZD9 (FZD9 CRD)","percent growth inhibition, ASPC-1 10 μg/ml (ASPC-1 cells) [%]","percent growth inhibition, HPAFII 2 μg/ml (HPAFII cells) [%]","percent growth inhibition, HPAFII 10 μg/ml (HPAFII cells) [%]","percent growth inhibition, PATU8988s 10 μg/ml (PATU8988S cells [1]) [%]","percent growth inhibition, RWP1 10 μg/ml (RWP1 cells) [%]","Median fluorescence, Frizzled CRD overexpressed on CHO cells: None [2]","percent growth inhibition, PATU8988s 2 μg/ml (PATU8988S cells [3]) [%]"
B1,+,−,+,−,19.44,−14.19,−6.12,−17.17,27.16,3.92,6.02
B2,+++,+++,++++,−,31.00,6.46,−7.63,−23.95,70.38,3.79,−15.15
B3,−,−,−,−,24.63,−9.18,−10.62,−22.12,10.15,3.46,2.48
B4,−,−,++,−,28.62,−0.17,3.21,−8.85,25.69,3.59,−14.70
B5,−,−,+,−,37.33,−10.77,7.81,−13.64,10.72,4.66,−0.39
B6,−,−,−,−,36.76,3.40,20.44,1.78,0.90,3.13,−9.14
